Measured values taken from US6383734B1, “Method to determine inhibition of PAK3 activation of Raf-1” (Advanced Research and Technology Institute, Inc., priority 1998, dated 2002).

Assays:
Raf-1 serine 338/339 = assay: In vitro kinase assay with Raf-1 peptide and Raf-CR3 as substrates; type: biochemical, human
Method: (§1) B. Kinase assays. Kinase samples were assessed for their ability to phosphorylate 500 μM Raf-1 peptide (33,[…]345) (SEQ ID NO:4) in the presence of 500 μMATP (containing 2 μCi [γ-^32P]-ATP at 30° C. for 10 minutes. Incubations were analyzed by P-81 phosphocellulose paper assay. Phosphorylation of serine 338/339 in Raf-CR3 was determined by similar incubations containing 1 μg of substrate at 30° C. for 30-60 minutes. Proteins were resolved by SDS-PAGE, transferred to Immobilon-P and the dried, Ponceau S-stained membranes were autoradiographed. Raf-1 kinase activity was measured by the coupled assay method using GST-Mek 1, GST-Erk1 and myelin basic protein by the method of D. Stokoe et al., Science, 264, 1463 (1994).
D. Expression of recombinant Raf-CR3 in E. Coli. DNA sequences encoding residues 307-648 of human c-Raf-1 were amplified by polymerase chain reaction using the 5′-primer […] (SEQ ID NO:5) and the 3′-primer […] (SEQ ID NO:6). The amplified DNA was purified, digested with EcoRI and XhoI and cloned into the Stratagene pCAL-n vector. The entire Raf-CR3 coding sequence was verified by termination reaction PCR DNA sequencing. Raf-CR3 D338E339 and A338A339 substitution mutants were generated by site-directed mutagenesis using the Promega Altered SitesTM in vitro mutagenesis system. Raf-CR3-calmodulin binding protein fusions were expressed in E. coli strain BL21 (pLysS). […]

Raf-1 = molecular target: T1, Raf-1 (Homo sapiens, UniProt P04049); assay: Raf kinase activity after co-transfection of PAK3 constructs with Raf-1 (with or without Ras[V12]) into COS-7 cells; type: cell-based
T1 construct: expressed in transfected cells; host or cells: COS-7
Method: as §1
F. Transfections. COS-7 cells were transfected with 10 μg of each plasmid DNA (pcEXV3 containing Ras^[V12], myc-Raf, myc-Raf-CX or pJ3H containing PAK3) by electroporation. Cells were lysed three days post-transfection in the presence of protease and phosphatase inhibitors and Raf-1 kinase activity was then examined as described by Stokoe et al., cited above. Transfection/expression efficiencies were assessed by densitometric scanning of Western blots of immunoprecipitates as well as cell lysates and data sets were normalized accordingly.

Substance: Recombinant PAK3: recombinant His-tagged mouse PAK3 from Sf9 cells
- stimulation of Raf-1 peptide and Raf-CR3 serine 338/339 kinase activity by GTPase (Raf-1 serine 338/339; co-incubation with GST-Rac-GTPγS or GST-Cdc42-GTPγS, FIGS. 4c and 4d): stimulated up to six-fold

Substance: p37: 37-kD Raf-1 serine 338/339 kinase purified from rat spleen, a proteolytically cleaved catalytic domain of PAK3
- specific activity (Raf-1 peptide phosphorylation) (Raf-1 serine 338/339; kinase purified from rat spleen, Mono-P eluate): 19,500 pmol/min/mg

Substance: wild type PAK3: wild type p21-activated protein kinase PAK3, expressed from plasmid in COS-7 cells
- increase of Raf-CX or Ras[V12]-inducible Raf-1 activation on co-expression (Raf-1): did not significantly increase
